Data as given in US20150258192A1, “COMPOSITIONS AND METHODS FOR PREVENTING OR TREATING CHRONIC LUNG ALLOGRAFT DYSFUNCTION (CLAD) AND IDIOPATHIC PULMONARY FIBROSIS (IPF)” (priority 2014, published 2015).
No end group written: not given here.

How the values were obtained:
Assay in all cases: Kinase Profiling Assay
Format in all cases: biochemical
Settings in all cases: peptide 100 μM
Tie2(Y897S)(h) = Tie2(Y897S)(h) (Homo sapiens, UniProt Q02763, Y897S)
How it was run: (§1)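 Activity remaining relative to an uninhibited control was determined by scintillation counting of labeled substrate bound to a negatively charged filter. Radiolabeled phosphate came from ATP; the substrate carried positive charge. Duplicate measurements, within a 266-kinase human panel.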

MuSK(h) = biological target: T1, MuSK(h) (Homo sapiens, UniProt O15146)
T1 construct: purchased Millipore
T1 sequence (O15146 24-869): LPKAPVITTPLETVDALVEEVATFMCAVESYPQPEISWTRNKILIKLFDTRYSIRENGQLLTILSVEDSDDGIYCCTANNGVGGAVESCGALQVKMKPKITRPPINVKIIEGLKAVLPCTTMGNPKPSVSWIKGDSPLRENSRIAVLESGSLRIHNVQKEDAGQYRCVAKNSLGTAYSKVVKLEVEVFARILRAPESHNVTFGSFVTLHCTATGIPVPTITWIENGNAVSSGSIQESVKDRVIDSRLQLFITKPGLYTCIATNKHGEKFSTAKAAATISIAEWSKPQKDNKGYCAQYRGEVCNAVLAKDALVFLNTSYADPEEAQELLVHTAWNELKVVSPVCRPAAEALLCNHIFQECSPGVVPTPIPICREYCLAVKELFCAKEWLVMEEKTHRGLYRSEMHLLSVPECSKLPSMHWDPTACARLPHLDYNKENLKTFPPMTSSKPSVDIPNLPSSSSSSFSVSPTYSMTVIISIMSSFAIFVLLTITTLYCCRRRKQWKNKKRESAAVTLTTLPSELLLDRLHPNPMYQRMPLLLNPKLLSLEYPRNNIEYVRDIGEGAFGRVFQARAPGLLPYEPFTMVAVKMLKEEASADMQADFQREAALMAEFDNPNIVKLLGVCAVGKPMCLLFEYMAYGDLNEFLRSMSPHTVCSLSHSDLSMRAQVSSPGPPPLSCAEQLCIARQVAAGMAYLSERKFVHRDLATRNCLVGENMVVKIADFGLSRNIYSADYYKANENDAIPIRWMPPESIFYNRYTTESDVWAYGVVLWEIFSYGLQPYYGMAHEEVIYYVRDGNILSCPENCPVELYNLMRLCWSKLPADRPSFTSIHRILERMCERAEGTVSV
How it was run: as §1

PKCη(h) = PKCη(h) (Homo sapiens, UniProt P24723)
How it was run: as §1

Met(h) = biological target: T2, Met(h) (Homo sapiens, UniProt P08581)
T2 construct: purchased Millipore
How it was run: as §1

SAPK2b(h) = biological target: T3, SAPK2b(h) (Homo sapiens, UniProt Q15759)
T3 construct: purchased Millipore
How it was run: as §1

CHK2(I157T)(h) = CHK2(I157T)(h) (Homo sapiens, UniProt O96017, I157T)
How it was run: as §1

Met(Y1248C)(h) = biological target: T4, Met(Y1248C)(h) (Homo sapiens, UniProt P08581, Y1230C)
T4 construct: purchased Millipore
How it was run: as §1

EphB3(h) = biological target: T5, EphB3(h) (Homo sapiens, UniProt P54753)
T5 sequence (P54753 34-998): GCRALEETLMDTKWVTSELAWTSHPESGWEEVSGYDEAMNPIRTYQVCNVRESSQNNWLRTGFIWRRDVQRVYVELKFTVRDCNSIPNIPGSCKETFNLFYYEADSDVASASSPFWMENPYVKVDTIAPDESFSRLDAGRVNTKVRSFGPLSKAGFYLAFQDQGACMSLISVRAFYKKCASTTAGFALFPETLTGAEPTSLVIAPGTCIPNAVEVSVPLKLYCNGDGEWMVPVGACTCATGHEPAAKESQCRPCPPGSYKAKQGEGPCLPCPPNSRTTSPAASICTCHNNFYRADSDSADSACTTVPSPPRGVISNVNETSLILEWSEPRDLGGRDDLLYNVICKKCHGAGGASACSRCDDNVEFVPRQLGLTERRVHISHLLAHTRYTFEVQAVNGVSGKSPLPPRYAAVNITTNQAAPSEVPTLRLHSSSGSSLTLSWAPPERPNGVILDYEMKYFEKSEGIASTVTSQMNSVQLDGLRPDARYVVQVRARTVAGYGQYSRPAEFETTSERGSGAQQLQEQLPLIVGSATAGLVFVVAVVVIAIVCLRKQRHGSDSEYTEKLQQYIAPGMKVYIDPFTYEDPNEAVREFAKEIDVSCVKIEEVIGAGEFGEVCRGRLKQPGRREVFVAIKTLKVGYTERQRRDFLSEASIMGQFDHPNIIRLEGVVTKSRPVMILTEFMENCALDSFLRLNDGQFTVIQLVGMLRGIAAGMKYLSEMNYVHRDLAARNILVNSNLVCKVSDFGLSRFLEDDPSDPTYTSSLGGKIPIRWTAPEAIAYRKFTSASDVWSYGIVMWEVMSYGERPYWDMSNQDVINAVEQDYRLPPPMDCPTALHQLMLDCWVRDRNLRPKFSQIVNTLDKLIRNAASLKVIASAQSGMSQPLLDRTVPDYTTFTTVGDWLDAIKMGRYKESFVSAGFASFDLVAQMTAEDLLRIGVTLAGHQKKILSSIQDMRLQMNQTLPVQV
How it was run: as §1

Pim-2(h) = Pim-2(h) (Homo sapiens, UniProt Q9P1W9)
How it was run: as §1

Ret(V804L)(h) = Ret(V804L)(h) (Homo sapiens, UniProt P07949, V804L)
How it was run: as §1

PAK4(h) = biological target: T6, PAK4(h) (Homo sapiens, UniProt O96013)
T6 construct: purchased Millipore
How it was run: as §1

EphA2(h) = EphA2(h) (Homo sapiens, UniProt P29317)
How it was run: as §1

T6 sequence (O96013 whole entry): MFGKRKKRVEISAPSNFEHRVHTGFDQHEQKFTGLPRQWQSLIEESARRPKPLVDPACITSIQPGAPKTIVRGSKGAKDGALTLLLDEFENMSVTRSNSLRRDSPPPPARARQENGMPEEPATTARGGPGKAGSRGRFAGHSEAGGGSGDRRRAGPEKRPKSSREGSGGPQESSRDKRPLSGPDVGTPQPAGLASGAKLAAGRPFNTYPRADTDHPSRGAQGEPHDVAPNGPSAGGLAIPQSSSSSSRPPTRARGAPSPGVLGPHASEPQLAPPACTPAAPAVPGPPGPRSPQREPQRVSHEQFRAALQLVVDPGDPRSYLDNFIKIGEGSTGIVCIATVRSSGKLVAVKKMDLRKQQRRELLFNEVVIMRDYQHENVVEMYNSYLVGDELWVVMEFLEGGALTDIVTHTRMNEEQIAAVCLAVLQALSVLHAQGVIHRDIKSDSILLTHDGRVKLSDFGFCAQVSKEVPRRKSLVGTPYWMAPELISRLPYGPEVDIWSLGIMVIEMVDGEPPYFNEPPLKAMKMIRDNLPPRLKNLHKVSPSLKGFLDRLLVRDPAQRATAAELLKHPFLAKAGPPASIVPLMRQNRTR
Pim-2(h), sequence (Q9P1W9 whole entry): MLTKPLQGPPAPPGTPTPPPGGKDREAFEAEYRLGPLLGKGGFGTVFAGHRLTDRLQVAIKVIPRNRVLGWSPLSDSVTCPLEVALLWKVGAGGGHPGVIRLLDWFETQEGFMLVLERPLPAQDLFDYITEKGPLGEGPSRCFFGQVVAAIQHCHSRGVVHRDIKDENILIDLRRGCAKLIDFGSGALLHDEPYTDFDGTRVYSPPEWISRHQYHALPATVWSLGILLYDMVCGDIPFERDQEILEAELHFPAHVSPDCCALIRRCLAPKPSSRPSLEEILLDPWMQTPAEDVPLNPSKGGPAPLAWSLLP
Tie2(Y897S)(h), sequence (Q02763 23-1124 Y897S): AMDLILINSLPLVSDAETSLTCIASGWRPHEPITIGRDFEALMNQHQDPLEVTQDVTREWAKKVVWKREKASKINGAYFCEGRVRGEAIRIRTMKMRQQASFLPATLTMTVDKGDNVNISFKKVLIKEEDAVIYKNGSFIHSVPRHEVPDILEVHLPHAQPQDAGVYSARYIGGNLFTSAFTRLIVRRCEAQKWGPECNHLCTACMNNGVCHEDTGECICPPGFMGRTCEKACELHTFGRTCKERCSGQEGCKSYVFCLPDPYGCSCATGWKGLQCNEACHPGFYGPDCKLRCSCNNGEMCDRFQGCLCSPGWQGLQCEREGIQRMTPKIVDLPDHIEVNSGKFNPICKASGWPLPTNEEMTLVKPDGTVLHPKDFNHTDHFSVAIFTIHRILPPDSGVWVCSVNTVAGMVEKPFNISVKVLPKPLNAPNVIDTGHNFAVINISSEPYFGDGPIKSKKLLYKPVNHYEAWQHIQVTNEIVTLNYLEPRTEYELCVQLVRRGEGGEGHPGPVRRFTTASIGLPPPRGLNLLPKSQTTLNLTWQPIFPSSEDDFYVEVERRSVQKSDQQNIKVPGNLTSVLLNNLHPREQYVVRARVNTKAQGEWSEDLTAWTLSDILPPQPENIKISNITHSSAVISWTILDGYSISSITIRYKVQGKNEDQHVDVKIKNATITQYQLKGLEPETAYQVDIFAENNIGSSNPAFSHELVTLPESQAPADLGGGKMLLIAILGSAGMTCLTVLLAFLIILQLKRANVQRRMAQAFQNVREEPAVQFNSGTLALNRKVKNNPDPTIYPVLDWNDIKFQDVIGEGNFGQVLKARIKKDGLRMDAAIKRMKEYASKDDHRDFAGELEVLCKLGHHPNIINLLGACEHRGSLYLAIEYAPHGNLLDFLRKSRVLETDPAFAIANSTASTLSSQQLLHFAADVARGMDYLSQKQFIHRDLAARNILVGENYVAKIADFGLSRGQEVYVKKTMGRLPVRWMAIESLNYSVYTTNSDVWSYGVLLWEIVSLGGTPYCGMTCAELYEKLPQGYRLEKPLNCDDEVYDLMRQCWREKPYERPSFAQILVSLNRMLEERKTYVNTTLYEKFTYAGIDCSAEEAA
CHK2(I157T)(h), sequence (O96017 whole entry I157T): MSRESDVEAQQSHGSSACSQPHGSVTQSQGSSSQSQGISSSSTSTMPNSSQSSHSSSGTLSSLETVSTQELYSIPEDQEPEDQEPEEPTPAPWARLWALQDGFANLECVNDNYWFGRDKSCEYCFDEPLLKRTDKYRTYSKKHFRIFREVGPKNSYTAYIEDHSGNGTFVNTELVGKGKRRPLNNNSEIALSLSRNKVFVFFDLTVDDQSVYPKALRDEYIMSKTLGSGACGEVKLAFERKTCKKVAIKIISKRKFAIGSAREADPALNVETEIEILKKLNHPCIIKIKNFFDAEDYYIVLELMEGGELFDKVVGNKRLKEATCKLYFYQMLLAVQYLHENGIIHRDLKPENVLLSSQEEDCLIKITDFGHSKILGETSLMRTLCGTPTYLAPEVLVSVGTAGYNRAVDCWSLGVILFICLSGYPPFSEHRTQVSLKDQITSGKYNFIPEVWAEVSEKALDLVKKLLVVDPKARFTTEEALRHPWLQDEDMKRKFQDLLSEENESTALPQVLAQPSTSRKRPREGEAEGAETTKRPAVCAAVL
T3 sequence (Q15759 whole entry): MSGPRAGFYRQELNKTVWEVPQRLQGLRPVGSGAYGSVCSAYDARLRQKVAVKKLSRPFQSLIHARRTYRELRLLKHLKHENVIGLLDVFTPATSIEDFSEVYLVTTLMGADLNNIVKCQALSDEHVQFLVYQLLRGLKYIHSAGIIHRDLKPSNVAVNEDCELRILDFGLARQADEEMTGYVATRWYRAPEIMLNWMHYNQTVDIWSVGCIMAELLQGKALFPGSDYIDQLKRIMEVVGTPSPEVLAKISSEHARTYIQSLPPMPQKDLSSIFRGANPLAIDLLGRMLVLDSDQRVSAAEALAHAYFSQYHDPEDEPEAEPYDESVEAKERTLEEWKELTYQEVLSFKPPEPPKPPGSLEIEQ
PKCη(h), sequence (P24723 whole entry): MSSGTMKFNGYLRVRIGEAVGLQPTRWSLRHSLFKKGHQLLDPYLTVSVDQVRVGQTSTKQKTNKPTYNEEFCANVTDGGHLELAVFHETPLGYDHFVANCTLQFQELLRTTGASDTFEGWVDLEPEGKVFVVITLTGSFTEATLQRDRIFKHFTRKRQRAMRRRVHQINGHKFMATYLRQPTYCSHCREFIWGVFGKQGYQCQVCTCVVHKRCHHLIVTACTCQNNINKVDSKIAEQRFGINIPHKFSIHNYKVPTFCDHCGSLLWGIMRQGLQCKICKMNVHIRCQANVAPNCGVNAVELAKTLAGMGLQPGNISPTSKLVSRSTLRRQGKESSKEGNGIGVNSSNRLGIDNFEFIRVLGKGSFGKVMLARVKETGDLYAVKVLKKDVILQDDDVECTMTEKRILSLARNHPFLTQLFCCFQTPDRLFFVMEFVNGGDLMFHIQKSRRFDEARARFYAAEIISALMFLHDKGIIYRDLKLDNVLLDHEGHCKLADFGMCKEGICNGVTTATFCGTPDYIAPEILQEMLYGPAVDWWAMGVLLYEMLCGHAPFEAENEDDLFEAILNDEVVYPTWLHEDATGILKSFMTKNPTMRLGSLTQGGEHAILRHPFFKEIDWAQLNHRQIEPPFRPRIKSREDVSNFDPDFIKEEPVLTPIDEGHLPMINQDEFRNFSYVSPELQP

Row | Sequence | % activity (Tie2(Y897S)(h)) | % activity (MuSK(h)) | % activity (PKCη(h)) | % activity (Met(h)) | % activity (SAPK2b(h)) | % activity (CHK2(I157T)(h)) | % activity (Met(Y1248C)(h)) | % activity (EphB3(h)) | % activity (Pim-2(h)) | % activity (Ret(V804L)(h)) | % activity (PAK4(h)) | % activity (EphA2(h))
1 | HRRIKAWLKKIKALARQLGVAA (Mammal) [MMI-0500] | 80% | 27% | 45% | 27% | 42% | 3% | 73% | 79% | 46% | 20% | 86% | –
2 | YARAAARQARAKALNRQLGVA (Mammal) [MMI-0200] | 85% | – | 101% | 71% | 95% | 85% | 141% | 128% | 74% | 100% | 98% | 95%
3 | YARAAARQARAKALARQLGVAA [MMI-0100] | 99% | 85% | – | – | – | 97% | 77% | – | – | – | 92% | –
4 | FAKLAARLYRKALARQLGVAA [MMI-0300] | 83% | 93% | – | 65% | 81% | 43% | 84% | 62% | 76% | 79% | 94% | 31%
5 | KAFAKLAARLYRKALARQLGVAA [MMI-0400] | 87% | 93% | 98% | 62% | 82% | 41% | 36% | 47% | 92% | 73% | 89% | 17%
